Measured values reported in article PMC4963197, “Phosphorylation acts positively and negatively to regulate MRTF-A subcellular localisation and activity” (eLife, 2016).

Biological target: G-actin, P68135
Assay: size exclusion chromatography
Details: chain shown with the change

B1: MRTF-A(67–199) L74A; L78A; S98D (protein)
chain: LSERKNVAQLKAQQRRTREELVSQGIMPPLKDPAAFHEQRRSLERARTEDYLKRKIRSRPERAELVRMHILEETSAEPSLQAKQLKLKRARLADDLNEKIAQRPGPMELVEKNILPVESSLKEAIIVGQVNYP
In the case of B1, the other: actins (apparent stoichiometry of G-actin binding) is reported as 2.3.
